This is an account of results in the Human Domainome abundance scans (Beltran et al. 2025).

± gives the uncertainty stated by the source.

The data set in a line: abundance fitness (aPCA) (normalised: wild type 0, dead -1); higher = more abundant; growth selection in yeast, the domain comes from the species named. To be noted: Homo sapiens.
Substance “SAFB-like transcription modulator R26P, Q9NWH9” had an abundance fitness of -0.126 ± 0.14. “SAFB-like transcription modulator R26Q, Q9NWH9” returned an abundance fitness of -0.502 ± 0.17. The same measure for “SAFB-like transcription modulator R26S, Q9NWH9”: -0.011 ± 0.071; for “SAFB-like transcription modulator R26T, Q9NWH9”: -0.302 ± 0.12; for “SAFB-like transcription modulator R26V, Q9NWH9”: -0.365 ± 0.085.

“SAFB-like transcription modulator R26W, Q9NWH9” had an abundance fitness of -0.627 ± 0.1. The substance “SAFB-like transcription modulator R26Y, Q9NWH9” yielded an abundance fitness of -0.579 ± 0.27. Turning to “SAFB-like transcription modulator R36S, Q9NWH9”, the abundance fitness was -0.048 ± 0.42. For “SAFB-like transcription modulator R37A, Q9NWH9”, the abundance fitness was -1.09 ± 0.091.

“SAFB-like transcription modulator R37C, Q9NWH9” showed an abundance fitness of -0.921 ± 0.052. The substance “SAFB-like transcription modulator R37D, Q9NWH9” showed an abundance fitness of -0.621 ± 0.052. Substance “SAFB-like transcription modulator R37E, Q9NWH9” had an abundance fitness of -0.694 ± 0.036. Regarding “SAFB-like transcription modulator R37G, Q9NWH9”, the abundance fitness is -0.912 ± 0.047. The substance “SAFB-like transcription modulator R37H, Q9NWH9” registered an abundance fitness of -0.648 ± 0.066.

As to “SAFB-like transcription modulator R37I, Q9NWH9”, the abundance fitness was -1.07 ± 0.16. As for “SAFB-like transcription modulator R37K, Q9NWH9”, the abundance fitness is -0.283 ± 0.098. Turning to “SAFB-like transcription modulator R37L, Q9NWH9”, the abundance fitness was -0.71 ± 0.045. Take “SAFB-like transcription modulator R37M, Q9NWH9”: the abundance fitness was -0.601 ± 0.064.

The substance “SAFB-like transcription modulator R37N, Q9NWH9” registered an abundance fitness of -1.12 ± 0.17.

In turn, “SAFB-like transcription modulator R37P, Q9NWH9” had an abundance fitness of -0.658 ± 0.094. The result for “SAFB-like transcription modulator R37Q, Q9NWH9” reads -0.575 ± 0.13; that for “SAFB-like transcription modulator R37S, Q9NWH9”, -0.845 ± 0.057. The same measure for “SAFB-like transcription modulator R37T, Q9NWH9”: -0.751 ± 0.078; for “SAFB-like transcription modulator R37V, Q9NWH9”: -1.06 ± 0.08. For the substance “SAFB-like transcription modulator R37W, Q9NWH9”, the abundance fitness was -1.26 ± 0.071. Take “SAFB-like transcription modulator R37Y, Q9NWH9”: the abundance fitness was -0.722 ± 0.16. “SAFB-like transcription modulator R51A, Q9NWH9” gave an abundance fitness of -0.437 ± 0.077. With “SAFB-like transcription modulator R51D, Q9NWH9”, the abundance fitness is -0.783 ± 0.4. Consider “SAFB-like transcription modulator R51F, Q9NWH9”, for which the abundance fitness was -1.21 ± 0.38. With “SAFB-like transcription modulator R51G, Q9NWH9”, the abundance fitness is -0.574 ± 0.078. The result for “SAFB-like transcription modulator R51H, Q9NWH9” reads -0.814 ± 0.27. The same measure for “SAFB-like transcription modulator R51I, Q9NWH9”: -0.542 ± 0.22; for “SAFB-like transcription modulator R51K, Q9NWH9”: -0.2 ± 0.065. “SAFB-like transcription modulator R51L, Q9NWH9” gave an abundance fitness of -0.753 ± 0.068. “SAFB-like transcription modulator R51M, Q9NWH9” returned an abundance fitness of -0.506 ± 0.051.

“SAFB-like transcription modulator R51N, Q9NWH9” registered an abundance fitness of -0.403 ± 0.037. The result for “SAFB-like transcription modulator R51P, Q9NWH9” reads -0.699 ± 0.13; that for “SAFB-like transcription modulator R51S, Q9NWH9”, -0.511 ± 0.063; that for “SAFB-like transcription modulator R51T, Q9NWH9”, -0.57 ± 0.13. “SAFB-like transcription modulator R51V, Q9NWH9”: the abundance fitness is -0.73 ± 0.19.

For “SAFB-like transcription modulator R51W, Q9NWH9”, the abundance fitness was -1.1 ± 0.085. The same measure for “SAFB-like transcription modulator R51Y, Q9NWH9”: -1.01 ± 0.35; for “SAFB-like transcription modulator S32A, Q9NWH9”: -0.147 ± 0.062. The result for “SAFB-like transcription modulator S32C, Q9NWH9” reads -0.309 ± 0.067. Turning to “SAFB-like transcription modulator S32D, Q9NWH9”, the abundance fitness came out at 0.156 ± 0.073. The same measure for “SAFB-like transcription modulator S32E, Q9NWH9”: -0.03 ± 0.05; for “SAFB-like transcription modulator S32F, Q9NWH9”: -0.125 ± 0.036. The same measure for “SAFB-like transcription modulator S32G, Q9NWH9”: -0.077 ± 0.051. The same measure for “SAFB-like transcription modulator S32H, Q9NWH9”: -0.031 ± 0.055; for “SAFB-like transcription modulator S32K, Q9NWH9”: -0.246 ± 0.085; for “SAFB-like transcription modulator S32L, Q9NWH9”: -0.024 ± 0.04. On to “SAFB-like transcription modulator S32M, Q9NWH9”, for which the abundance fitness was -0.051 ± 0.044. In turn, “SAFB-like transcription modulator S32N, Q9NWH9” returned an abundance fitness of -0.407 ± 0.11. The result for “SAFB-like transcription modulator S32P, Q9NWH9” reads -0.768 ± 0.058.

Regarding “SAFB-like transcription modulator S32Q, Q9NWH9”, the abundance fitness was -0.325 ± 0.097. As for “SAFB-like transcription modulator S32R, Q9NWH9”, the abundance fitness was -0.176 ± 0.045. In turn, “SAFB-like transcription modulator S32T, Q9NWH9” registered an abundance fitness of -0.048 ± 0.068.

Substance “SAFB-like transcription modulator S32V, Q9NWH9” came in with an abundance fitness of -0.023 ± 0.051. As to “SAFB-like transcription modulator S32W, Q9NWH9”, the abundance fitness was -0.108 ± 0.049. For the substance “SAFB-like transcription modulator S32Y, Q9NWH9”, the abundance fitness is -0.173 ± 0.09. The same measure for “SAFB-like transcription modulator S50A, Q9NWH9”: 0.015 ± 0.037. The same measure for “SAFB-like transcription modulator S50C, Q9NWH9”: -0.342 ± 0.082.

Turning to “SAFB-like transcription modulator S50D, Q9NWH9”, the abundance fitness was -0.109 ± 0.065. “SAFB-like transcription modulator S50E, Q9NWH9” displayed an abundance fitness of 0.087 ± 0.075.

Turning to “SAFB-like transcription modulator S50F, Q9NWH9”, the abundance fitness is -0.253 ± 0.052. For the substance “SAFB-like transcription modulator S50G, Q9NWH9”, the abundance fitness worked out at 0.028 ± 0.039.

Take “SAFB-like transcription modulator S50H, Q9NWH9”: the abundance fitness is -0.353 ± 0.47. The substance “SAFB-like transcription modulator S50I, Q9NWH9” displayed an abundance fitness of -0.514 ± 0.29.

Substance “SAFB-like transcription modulator S50K, Q9NWH9” yielded an abundance fitness of -0.111 ± 0.083. Regarding “SAFB-like transcription modulator S50L, Q9NWH9”, the abundance fitness was -0.055 ± 0.075. On to “SAFB-like transcription modulator S50P, Q9NWH9”, for which the abundance fitness was -0.521 ± 0.14. In the case of “SAFB-like transcription modulator S50Q, Q9NWH9”, the abundance fitness was -0.486 ± 0.22. In turn, “SAFB-like transcription modulator S50R, Q9NWH9” showed an abundance fitness of -0.037 ± 0.062. The result for “SAFB-like transcription modulator S50V, Q9NWH9” reads -0.38 ± 0.072. Turning to “SAFB-like transcription modulator T23A, Q9NWH9”, the abundance fitness is -0.063 ± 0.035. Take “SAFB-like transcription modulator T23C, Q9NWH9”: the abundance fitness is -0.083 ± 0.042. The same measure for “SAFB-like transcription modulator T23D, Q9NWH9”: -0.093 ± 0.041.

On to “SAFB-like transcription modulator T23E, Q9NWH9”, for which the abundance fitness was -0.001 ± 0.034. Consider “SAFB-like transcription modulator T23F, Q9NWH9”, for which the abundance fitness was -0.127 ± 0.035. The same measure for “SAFB-like transcription modulator T23G, Q9NWH9”: -0.072 ± 0.034; for “SAFB-like transcription modulator T23H, Q9NWH9”: -0.281 ± 0.034. In turn, “SAFB-like transcription modulator T23I, Q9NWH9” returned an abundance fitness of -0.019 ± 0.033. “SAFB-like transcription modulator T23L, Q9NWH9” displayed an abundance fitness of -0.184 ± 0.031. “SAFB-like transcription modulator T23M, Q9NWH9” showed an abundance fitness of -0.06 ± 0.038. In turn, “SAFB-like transcription modulator T23N, Q9NWH9” had an abundance fitness of -0.066 ± 0.035. The same measure for “SAFB-like transcription modulator T23P, Q9NWH9”: -0.339 ± 0.031; for “SAFB-like transcription modulator T23Q, Q9NWH9”: -0.034 ± 0.046; for “SAFB-like transcription modulator T23R, Q9NWH9”: -0.178 ± 0.033.

As for “SAFB-like transcription modulator T23S, Q9NWH9”, the abundance fitness was -0.021 ± 0.032. The substance “SAFB-like transcription modulator T23V, Q9NWH9” yielded an abundance fitness of -0.049 ± 0.031. As to “SAFB-like transcription modulator T23W, Q9NWH9”, the abundance fitness was -0.175 ± 0.047.
